{"source": "patent US20130130347", "about": "“CONSTRUCTS AND METHODS FOR THE ASSEMBLY OF BIOLOGICAL PATHWAYS” (CORNELL UNIVERSITY, published 2013)", "binders": {"B1": {"name": "ZFb binding site DNA (dsDNA)", "DNA 1": "GCGGCTGGG", "DNA 2": "CCCAGCCGC"}, "B2": {"name": "ZFa binding site DNA (dsDNA)", "DNA 1": "GTCGATGCC", "DNA 2": "GGCATCGAC"}, "B3": {"name": "ZFc binding site DNA (dsDNA)", "DNA 1": "GAGGACGGC", "DNA 2": "GCCGTCCTC"}, "B4": {"name": "PBSII binding site DNA (dsDNA)", "DNA 1": "GTGTGGAAA", "DNA 2": "TTTCCACAC"}, "B5": {"name": "DNA scaffold with Zif268 and PBSII sites, 2-bp spacer (dsDNA)", "DNA 1": "GTTACTACTCGAGCGATCGGAATTCGAAGGGGAATTGCTGCTGCGGTGTTTGGATGGAGCGTGGGCGGGGTGTGGAAATTGATGCTGCATTGACCACCCAAGACGACTGCAGTACA", "DNA 2": "TGTACTGCAGTCGTCTTGGGTGGTCAATGCAGCATCAATTTCCACACCCCGCCCACGCTCCATCCAAACACCGCAGCAGCAATTCCCCTTCGAATTCCGATCGCTCGAGTAGTAAC"}, "B6": {"name": "scrambled control scaffold (dsDNA)", "DNA 1": "GTTACTACTCGAGCGGAATTCATCTAAGTTACTAGAGTCCTTATAGTTGACTCTTGTTCCACATTCTACTGTACACGCTCAGTACTCGAGCATACCTATCTCCTGCAGTACA", "DNA 2": "TGTACTGCAGGAGATAGGTATGCTCGAGTACTGAGCGTGTACAGTAGAATGTGGAACAAGAGTCAACTATAAGGACTCTAGTAACTTAGATGAATTCCGCTCGAGTAGTAAC"}, "B7": {"name": "Zif268 binding site DNA (dsDNA)", "DNA 1": "GCGTGGGCG", "DNA 2": "CGCCCACGC"}}, "key": {"MBP-ZFb (OZ300)": {"target": "MBP-ZFb (OZ300) (artificial)", "sequence (chain, as listed by the source)": "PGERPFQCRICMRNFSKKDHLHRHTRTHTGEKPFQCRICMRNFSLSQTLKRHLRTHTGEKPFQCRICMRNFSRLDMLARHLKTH", "assay": "EMSA; biotinylated oligo, flanks not given; text states low nanomolar affinity without values", "conditions": "label: 5'-biotin", "procedure": "(§1) From this analysis, the amount of ZF-chimera present in cells was estimated at approximately 5000 per cell or 8 μM. The plasmid concentration in cells was determined to be approximately 127 per cell or […]. These values were used to design/select ZF domains with appropriate affinity and to design DNA scaffolds with enough binding sites to accommodate all ZF fusion proteins. FIG. 4B is a western blot analysis comparing the soluble and insoluble protein levels of unmodified MBP with MBP fused to 1, 2, 3 or 4 fingers as indicated. Flow cytometric analysis of cellular fluorescence levels of superfolder green fluorescent protein (sfGFP) fused to increasing number of fingers as indicated (FIG. 4B; right). FIG. 4C is an EMSA of purified PBSII-nYFP and cYFP-Zif268 chimeras using […] DNA with PBSII or Zif268 binding sites. MW, molecular weight ladder. Arrow indicates chimera-DNA complexes. EMSA of purified MBP-ZFa, MBP-ZFb and MBP-ZFc chimeras using varying amounts of biotinylated DNA containing the ZFa, ZFb or ZFc binding site is shown in FIG. 4D. Detection of DNA and DNA-protein complexes was with streptavidin-HRP against biotinylated DNA. […]\n(§2) For EMSA with PBSII and Zif268, 1 μg of the purified PBSII-nYFP and cYFP-Zif268 chimeras were incubated with 375 μM scaffold DNA for 3 h. […] Nucleic acid-protein complexes were detected under UV light. […]"}, "MBP-ZFa (OZ052)": {"target": "MBP-ZFa (OZ052) (artificial)", "sequence (chain, as listed by the source)": "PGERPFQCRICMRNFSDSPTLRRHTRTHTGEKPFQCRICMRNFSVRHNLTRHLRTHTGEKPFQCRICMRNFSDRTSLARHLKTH", "assay": "EMSA; biotinylated oligo, flanks not given; chimera-DNA dimer also seen; text states low nanomolar affinity without values", "conditions": "label: 5'-biotin", "procedure": "as §1, §2"}, "MBP-ZFc (OZ076)": {"target": "MBP-ZFc (OZ076) (artificial)", "sequence (chain, as listed by the source)": "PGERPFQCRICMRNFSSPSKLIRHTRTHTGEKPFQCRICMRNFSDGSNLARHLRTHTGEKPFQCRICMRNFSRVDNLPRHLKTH", "assay": "EMSA; biotinylated oligo, flanks not given; text states low nanomolar affinity without values", "conditions": "label: 5'-biotin", "procedure": "as §1, §2"}, "PBSII-nYFP chimera [1]": {"target": "PBSII-nYFP chimera (artificial)", "sequence (chain, as listed by the source mutant)": "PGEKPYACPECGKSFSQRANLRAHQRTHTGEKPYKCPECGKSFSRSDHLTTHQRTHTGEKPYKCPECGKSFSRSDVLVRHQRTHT", "assay": "EMSA; full oligo sequence not given; text states low nanomolar affinity without values", "conditions": "tags: nYFP C-terminal fusion, His"}, "cYFP-Zif268 chimera [2]": {"target": "cYFP-Zif268 chimera", "assay": "SPR; 20 mM HEPES pH 7.4, 150 mM NaCl, 2 mM DTT, 0.1 mM ZnCl2; 1 and 5 uM protein"}, "PBSII-nYFP chimera [3]": {"target": "PBSII-nYFP chimera (artificial)", "assay": "SPR; injected as mixture with cYFP-Zif268, 5 uM; same SPR buffer with 0.1 mM ZnCl2", "conditions": "tags: nYFP C-terminal fusion, His", "procedure": "Proteins that were directly dialyzed against buffer A (see above) were used in surface plasmon resonance (SPR) experiments. Proteins were further concentrated using Amicon Ultra-15 Centrifugal Filter Unit with Ultracel-10 membrane. The experiments were conducted using T100 apparatus (GE Healthcare, Biacore) and streptavidin-coated sensor chip (SA). […] The biotinylated single-stranded anchor DNA (5′-CGCTCGAGTAGTAAC-3′-Biotin; SEQ ID NO: 41) was immobilized on all four flow-cells. The anchor allowed capture of the double-stranded DNA molecule with complementary overhang. A DNA scaffold (5′-[…]-3′; SEQ ID NO: 42) was used that contained ZF binding sites for Zif268 and PBSII (underlined), respectively. Control DNA (5′-[…]-3′; SEQ ID NO: 43) contained a scrambled version of the scaffold and was used to correct the responses for unspecific binding of ZF chimeras. The control DNA was immobilized in the first flow-cell, while the DNA scaffold was used in the second flow cell. Typically, immobilization of control and scaffold DNA used 0.5 μM DNA and was performed for 5 min at 5 μl/min. Protein binding was measured following injection of appropriate concentration of PBSII-nYFP and/or cYFP-Zif268 chimeras in the SPR buffer. The surface of the sensor chip was regenerated by two 30 s injections of 50 mM NaOH that removed the DNA from the anchor."}, "cYFP-Zif268 chimera [4]": {"target": "cYFP-Zif268 chimera", "assay": "SPR; random scaffold reference, 1 uM protein; used to correct for unspecific binding"}, "cYFP-Zif268 chimera [5]": {"target": "cYFP-Zif268 chimera", "assay": "EMSA; full oligo sequence not given; text states low nanomolar affinity without values"}}}
{"binder": "B1", "values": [{"measurement": "binding result", "setting": "MBP-ZFb (OZ300)", "result": "binds"}]}
{"binder": "B2", "values": [{"measurement": "binding result", "setting": "MBP-ZFa (OZ052)", "result": "binds"}]}
{"binder": "B3", "values": [{"measurement": "binding result", "setting": "MBP-ZFc (OZ076)", "result": "binds"}]}
{"binder": "B4", "values": [{"measurement": "binding result", "setting": "PBSII-nYFP chimera [1]", "result": "binds"}]}
{"binder": "B5", "values": [{"measurement": "binding result", "setting": "cYFP-Zif268 chimera [2]", "result": "binds"}, {"measurement": "binding result", "setting": "PBSII-nYFP chimera [3]", "result": "binds"}]}
{"binder": "B6", "values": [{"measurement": "binding result", "setting": "cYFP-Zif268 chimera [4]", "result": "no binding"}]}
{"binder": "B7", "values": [{"measurement": "binding result", "setting": "cYFP-Zif268 chimera [5]", "result": "binds"}]}
